Reference: a protein production outcome set (Wang et al. 2014)

Test: label from the status in PepcDB records
For “MRTLAVISAGLSTPSSTRQIADSISEAVTAAVSARGEALSVSTIELSELIPDLMTAMTTRVHTTKLEEITSALSASDGLVVATPVFKASYTGLFKMFFDILDTDALTGMPTIIAATAGSARHSLVLDYALRPLLSYMRAVVVPTGVFAATEDFGGPEGAEFNKRIARAAGELASLIVEESGNVGLEHHHHHH”, the protein production was “failed”. In the case of “MRTLEPPNRMRIGLMGIVVALLVVAVGQSFTSVPMLFAKPSYYGQFTDSGGLHKGDRVRIAGLGVGTVEGLKIDGDHIVVKFSIGTNTIGTESRLAIRTDTILGRKVLEIEPRGAQALPPGGVLPVGQSTTPYQIYDAFFDVTKAASGWDIETVKRSLNVLSETVDQTYPHLSAALDGVAKFSDTIGKRDEQITHLLAQANQVASILGDRSDQVDRLLVNAKTLIAAFNERGRAVDALLGNISAFSAQVQNLINDNPNLNHVLEQLRILTDLLVDRKEDLAETLTILGRFSASFGETFASGPYFKVLLANLVPGQILQPFVDAAFKKRGISPEDFWRSAGLPAYRWPDPNGTRFPNGAPPPPPPVLEGTPEHPGPAVPPGSPCSYTPPADGLPRPWDPLPCANLTQGPFGGPDFPAPLDVATSPPNPDGPPPAPGLPIAGRPGEVPPNVPGTPVPIPQEAPPGARTLPLGPAPGPAPPPAAPGPPAPPGPGPQLPAPFINPGGTGGSGVTGGSEN”, the protein production is reported as “failed”. With “MRTLTTLLGNSQKLDGGAMFGNAPRALWSRWMQPDAENRIDLGCRALLVRDGERNVLVEAGIGAFFPPALRQRYGVQEERHVLLDSLAAVGLDDADIDVVLLTHLHFDHAGGLLAAWEEGQPARLLFPNAHFVSGRRHWQRARQPHPRDRASFVPELLDLLQASGRLELLDDGERSAHLGEGWRFHFSEGHTPGQMLPEIAMPDGPVVFSGDLIPGAPWVHLPLTMGYDRFPEGLIEEKERLLDSLIARNGRLVFTHDPCVAMGRVRRDEQERYSLYDTLERVENLEA” the protein production was “failed”. With “MRTVSHPTPLRRAPVQRRSAERLTRILDACADLLDEVGYDALSTRAVALRADVPIGSVYRFFGNKRQMADALAQRNLERYAERVTERLTEAGDGGWRGALDTVLDEYLAMKRTAPGFSLIDFGNQIPVGDRHAVPNHRVAERLTELLSGYLGRRPDDDLRRVFLVAVETADTLVQLAFRVAPDGDEKIIEEARELLRAYLGRVLD” the protein production was “not failed”. For “MRTYTAQPDTTRPDTLTVTTYNIGYLSGMRNNEPVVRPDSLFHANMDQAAGYLRAAAPDIVALQEIDFGGARAAHVHQLDTLAARLGYPGAAQAVNWDERYLPFPYGRPAVHFGRTLSGQAVLSRFPVRRHVRRTLPRPPQPFFRDAFYLDRLAQVGVVDVDGRPLAVINVHLEAFDVGTRETQARVVNDLYRRLADRGIPTLLLGDFNSSLSSGEEGGQAGAEDATMQHILAGTDLRSAVNTASADTASATYPADAPARTIDHIFYPPQFFEAVDTQRWCGRPAPPSDHCAVTAALRLPSRAKWPSHEALPPLEDSPTE”, the protein production was “failed”. For “MRVAVAGFGGVGRRLARLLLERGGSHGLSLAAAIDSRGHAVFDSRGCVEEALSAPRGGLAGVSCGAPGSGPGVLRGLGYDALVLTTASSPGTGEPGLGYARAALEDGKVVVAADKPPVALLLLEHGGPPPGLFYKATVMAGTPLIDLLRVGLAGRRVLRVVGVLNGTSNYILNLLMEGV”, the protein production was “failed”. In the case of “MRVEALGKVAPLPQAQTPVSLNEASLEELMALPGIGPVLARRIVEGRPYARVEDLLKVKGIGPATLERLRPYLRP”, the protein production is reported as “not failed”. With “MRVEENYHAFFTEASGFLNERIFKDYLRRLAYGIDASCYRYIPKIVAWVKNEEEVQKLCVLAKKHGVSLTFRAAGSSLSGQAICDGVLVMVTHFFKDAQILDNAQSIQLSCGVIGSNANALLKPYHKKIGPDPSTINTAMIGGIVANNASGMCCGVEQNSYKTLKSLRVILADGTLLDTANQESVESFKNAHKDLIEGVLNLRKEILEDKELHALIKKKYEIKNTTGYSLNALIDFEDPIEIISHLFIGSEGTLGFISSVELECVKDYAYKTCALLFYENLERCAKAAQILAALKAKQPEMISSAELMDYACLKSVKGLEGMPSVVLEIKEPNACLLIQSESDDPLILENSMQTILNALSAIPVVLDSQISSDPSIYQSWWKIRKGIFPIAASKRKSQSSVIIEDICFSQEDFVEGAKAIEGLLKKHGFKDNGIIFGHALSGNLHFVVTPILENEAERKAFENLVSEMFLMVSKSSGSIKAEHGTGRMVAPFVEMEWGEKAYKIHKQIKELFDPNGILNPDVIITNDKEIHTKNLKSIYPIEEHLDMCMECGFCERICPSKDLSLTPRQRIVIHREVEHLKERVSHGHHEDQVLLDELLKESEYLAHATCAVCHMCSTLCPLEIDTGKIALNYYQKNPKGEKIASKILNHMQTTTSMARFSLKSARLVQNLIGSHNLVSLTKGIKKFIKPFPKAFYYMPKNNAYPLENKTLKSEEKVIYFSTCINRSFAPSNKMADKRCIQEVFESLCQKAKVSVMYPNGLNALCCGKAFINYTDLTKQNNEKNHAIFLQLSDKGKIPIVLDHSACSTHFFKQMKAYKDLKVYDLSVYIEEVLSPKLKFNPINEDIGLYTMCALKLENKEELLFNLAKKCTLGEIVIHKETGCCGFAGNKGFFTPELNESALNGFQAFYQSYDLKRGFSTSSTCEIGLSEKTRFSWQHIAYLVDACTL” the protein production was “failed”. With “MRVIVTEYQPAWVEQFEEEAQALKQILKENCLKVEHIGSTSVPNLAAKPIIDFLVIVEEIEKVDLLQWEFERIGYEYMGEFGLSGRRYLRKGPIKRTHHVHIYQFDNTQEILRHLAFRNYLRENPAIATTYGTLKKQLAQAHPDSIDKYMDGKDAFIKKIEKEALKKYWE” the protein production was “not failed”. In the case of “MRVLAIRHVEIEDLGMMEDIFREKNWSFDYLDTPKGEKLERPLEEYSLVVLLGGYMGAYEEEKYPFLKYEFQLIEEILKKEIPFLGICLGSQMLAKVLGASVYRGKNGEEIGWYFVEKVSDNKFFREFPDRLRVFQWHGDTFDLPRRATRVFTSEKYENQGFVYGKAVGLQFHIEVGARTMKRWIEAYKDELEKKKIDPRLLLETAEREEKVLKGLLRSLLERMVES”, the protein production is reported as “not failed”. In the case of “MRVMAFVQARMGSTRLPGKSLMPVWNGMGVLEMTLRRALRARTLSGVVLCTSTDPACDALETLASGLGVQAFRGPEDDVLTRYALATERFEPDAVVRICADSPLVCPEGIDALVAFFRDEGLDYAAHAMDGTGLPDGLGCEVFTAAALAQAHAEATAPEDREHVSLFIRHRPERFRQATLAADAALRAPGVSLDVDTQDDLDALRRFIMALPPSEGPFWSADAIAPLARGLHTPPQGTSMDIASDDYHDFFIRDGKLIGEFEQMYRKSRHAPWHQDEACDKWFNKVSAALVGHALDDPSVRTVFEVGSGLGYFLSQFAGEGRTLTGTDVSATAVEKARALFPGISFEVDDIRFEGRRGPYDLCLMQAVCWCIFPHMDDVVRNVTATVRPGGYLFLGECFQPLDGPFAGKDVIPTPDALIGHFSHAFDTVADVRVTRGEMGGGPIIYWLGRRRGLEHHHHHH”, the protein production is reported as “not failed”. In the case of “MRVRNRKGATELLEANPQYVVLNPLEAKAKWRDLFGNDNPIHVEVGSGKGAFVSGMAKQNPDINYIGIDIQKSVLSYALDKVLEVGVPNIKLLWVDGSDLTDYFEDGEIDRLYLNFSDPWPKKRHEKRRLTYKTFLDTFKRILPENGEIHFKTDNRGLFEYSLVSFSQYGMKLNGVWLDLHASDFEGNVMTEYEQKFSNKGQVIYRVEAEF”, the protein production is reported as “not failed”. For “MRVVRGDVARRALSIGWPLVVADSALSIAWIVDTYFVGGLGSESIAAVGAAGYLIWLYMVFSTLVYMGVLVILGQAIGSGNRGLVERAAGEGLTLSILLSIIVCAAAFAASKQLLVVLAPEVDQLAWEYLSVSLLTVALHYVTILYDAVFRALGKTMPILYSSGVFTLANTALDPILIYGRLGAPALGVEGAAWASVAASLLGLLVLVYLSRYLDVGLRPLRPTSVSRSILALGFPSMVERVVFVVGNVVYLGSVSRCGADALAAHTIGVRIESLAFLPLFSIATASGVMVGWEVGAGRIAESKSTGWELIKLSSLIGLVVGAALALGGWLVTPIFTGDPRVAWLAALYLVIAGLTEPLLGVVMVAGQIIRNAGDTRTPTLVNLGSLYILRVVPAYLLPGLMPTGLCVLGAWLAMGIDIVGRAAAIVFIYLRYYTRLARRVA”, the protein production was “failed”. In the case of “MRWKYLVVLLIVILLASGCAEKSQGPGASAAFQEPESDTQDTEKTGNSEEGVHIDSVVFSRAGALLTLKDEAEISEIRVYSESEEIASQEIGKNKDNVFVSFNWDPEARYRFEVITGSGASGTIEAYAPSKPALKKEYTIELEDVTPGDIEKTSTNVEGALKFSPDSEYLAIGTNGGSLKLIKVATGEKVWEKQLVKGIADARIADIEFSEDGKRLFVGEESPDAFLYCFDLEGTEIWKYGAGKELGSDLKYMPAMKKIKLDSEGNIYVAASRACGYIGEKYKYLARIYSFDPEGNLRWKFPESEYMDSGVTWIDATPDGKYAVFGTTCFTETEKWREGTVHALNGNTGQEHWSYKIQPVEPFFDYSAIWYSTQITPDGEKLITMTSDGRAFLFNNSRIIETGTPEITWQQNISTPIVVSGVPIYGSANYAYIVNDTLIFSIGSTFSKDKNKDAPFEHPSGNSLFAYDYDGNLLWKWRVDGYAGECAVNDRYLVIPLAQNLVTEDRSVHGVYVFDASKSGGASSRLIQTYNTEGITVSADISPDGRYIAALEAPSRLDDGTVLGEYKVHILT”, the protein production is reported as “failed”. In the case of “MRWNCSACWASSASANAGRRRHFDTSLWRASCSGYGARARQIQAAWIRADTPESTRVPATRRIRLLNPVVPVRSLSACRHLTRSRPPLRSFTMPHVVARSGDVMSSAAPPSCTSLLGLSLSMFVAPCTLTAAPLDTPVVNAPAPTPPTPDQAYPELFQAVQSGELFDDQKHFVDFLPLRDPALINADYLAQHDHPGFDLRKFVDANFEESPPVQTDAIRQDTALREHIDLLWPKLVRSQNHVPPYSSLLSLPHPYVVPGGRFREVYYWDSYFTMLGLVKSGQTTLSRQMLDNFAYLIDTYGHIPNGNRSYYLSRSQPPFFSYMVELQAGVEGQAVYQRYLPQLQKEYAYWMQGSDDVQPGQAARHVVRLADGSVLNRYWDERDTPRPEAWLHDTRTAAEVKDRPAAEVYRDLRAGAESGWDYTSRWLADGQNLRTIRTTAIIPIDLNSLLYHLERTLAQACAQPGAACSRDYAALAQQRKQAIDAHLWNKAGYYADYDWQTRTLSDQITAAALYPLFAGLASDDHAKRTASTVRRTLVRPGGLATTAVKTGQQWDEPNGWAPLQWVAVDGLRRYGEQALARTIGERFLAQVQALFAREHKLVEKYGLETNAAGGGGGEYALQDGFGWTNGVTLMLLNLYPGKGAKAAPAKRVRKTEAAAR”, the protein production is reported as “failed”. In the case of “MRWRHPSALRKADERGRRTPCVVSATSLAVGRIALALLLVVLNGFFVAAEFAFVRLRSASVETLVQDGRRGATAVKEATDNLDDYLAVSQLGITIASLGLGWVGEPAVAVLVDPLLEPVLPAPVRHTVTVALGFGIVTLLHVVYGELAPKTIAIQRAERVALVVAPVMKLFYYVFLPGTILFNGIATRSVQLIGVSPETEGHDTHTEPEILSVLSEASAAGRISPAEVSMIEHVFSLDDTTVREIMRPRPDVTSVSADTPLPELRTMAASGEYTRYPVTEGPDDDVIGFVDVKDILRASDAIDESGDVTARELSRPVVVVPETLRVDELLAEFQAEHRQMAVVIDEWGAFEGLATIEDALEVIVGDIRDQFDLATHAQSIEPRDDGGYEVPGAVSITELNDHLGTDFENEAVETVAGLVVSRLGHAPTVGDRAVIDTHTFRVTGVDGARITSLTVTPDS”, the protein production is reported as “failed”. With “MRYERDMRGYGANPPDPKWPGGAHVAVQFVVNYEEGGENCVLHGDKASEAFLSEIVGAAPWVGQRHWNMESIYEYGARAGFWRLLRLFSESQVPVTCYGVASALARSPDQVTAMQDAGWEIASHGLRWIDYRDHSAEDERRDLEAAIKLHYEVTGQRPTGWYTGRTSVNTVRLVAEEGGFDYVSDTYDDELPYWFEHAGGTQLIIPYTLDANDMRFATPQGFNSGDQFFAYLKDSFDTLYAEGQAGRPRMMNIGLHCRLVGRPGRVAALKRFVDYVKSHDKVWLTRRIDIAKHWQENHPYKPAALRPSKMEFEIFVHTFGGVFEHSPWIAERAYELELGPAHDTAGGLHNALCRIFRSASETERLGVLNAHPDLAGKLAKARRLTAESTREQASAGLDALTDKERELFSKLNAAYVTTFGFPFIIAVKGKTKEEILAEFEARIGNSRGVEFETACKQVERIALLRLRDMLPQ” the protein production was “failed”.
